Measurements as given in patent publication US20170114115A1.

Assays:
Assay in all cases: cell-based or functional assay
[1] = molecular target: human Glucagon-Like Peptide-1 receptor (human) (UniProt P43220)
[2] = molecular target: recombinant human glucagon receptor (human) (UniProt P47871)
[3] = molecular target: T1, human glucose-dependent insulinotropic polypeptide receptor (human) (UniProt P48546)
T1 sequence (looked up): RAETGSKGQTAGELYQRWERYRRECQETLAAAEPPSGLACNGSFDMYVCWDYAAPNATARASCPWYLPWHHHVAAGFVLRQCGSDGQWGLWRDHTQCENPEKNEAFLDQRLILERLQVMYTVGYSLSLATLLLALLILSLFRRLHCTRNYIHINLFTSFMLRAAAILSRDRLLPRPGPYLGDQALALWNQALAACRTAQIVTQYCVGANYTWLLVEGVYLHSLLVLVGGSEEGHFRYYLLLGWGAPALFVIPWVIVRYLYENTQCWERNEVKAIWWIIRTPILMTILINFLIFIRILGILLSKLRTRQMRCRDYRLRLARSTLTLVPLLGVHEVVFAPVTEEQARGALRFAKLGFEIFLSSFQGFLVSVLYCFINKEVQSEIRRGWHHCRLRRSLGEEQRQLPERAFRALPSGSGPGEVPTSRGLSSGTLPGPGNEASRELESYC

Sequence of human Glucagon-Like Peptide-1 receptor (human) (P43220 24-463): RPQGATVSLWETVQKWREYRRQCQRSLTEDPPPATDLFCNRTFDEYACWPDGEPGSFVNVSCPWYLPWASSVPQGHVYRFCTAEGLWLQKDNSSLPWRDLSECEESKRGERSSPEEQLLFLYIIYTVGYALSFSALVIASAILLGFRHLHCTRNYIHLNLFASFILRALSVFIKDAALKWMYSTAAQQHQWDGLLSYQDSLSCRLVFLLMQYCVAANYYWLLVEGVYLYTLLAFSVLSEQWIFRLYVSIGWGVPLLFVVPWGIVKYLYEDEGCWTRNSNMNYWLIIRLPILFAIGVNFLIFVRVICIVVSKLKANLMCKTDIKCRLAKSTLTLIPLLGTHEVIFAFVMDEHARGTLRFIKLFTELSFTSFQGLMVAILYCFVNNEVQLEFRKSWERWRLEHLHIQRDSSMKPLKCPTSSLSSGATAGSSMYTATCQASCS
Sequence of dulaglutide (Fc fusion) (chain): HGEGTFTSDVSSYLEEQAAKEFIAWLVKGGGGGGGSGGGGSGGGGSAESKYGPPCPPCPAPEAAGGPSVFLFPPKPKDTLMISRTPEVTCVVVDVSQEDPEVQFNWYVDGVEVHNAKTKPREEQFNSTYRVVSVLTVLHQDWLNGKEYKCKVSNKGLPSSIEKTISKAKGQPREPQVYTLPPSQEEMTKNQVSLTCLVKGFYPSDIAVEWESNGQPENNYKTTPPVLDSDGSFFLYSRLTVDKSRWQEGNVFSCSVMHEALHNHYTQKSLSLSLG
Sequence of recombinant human glucagon receptor (human) (P47871 26-477): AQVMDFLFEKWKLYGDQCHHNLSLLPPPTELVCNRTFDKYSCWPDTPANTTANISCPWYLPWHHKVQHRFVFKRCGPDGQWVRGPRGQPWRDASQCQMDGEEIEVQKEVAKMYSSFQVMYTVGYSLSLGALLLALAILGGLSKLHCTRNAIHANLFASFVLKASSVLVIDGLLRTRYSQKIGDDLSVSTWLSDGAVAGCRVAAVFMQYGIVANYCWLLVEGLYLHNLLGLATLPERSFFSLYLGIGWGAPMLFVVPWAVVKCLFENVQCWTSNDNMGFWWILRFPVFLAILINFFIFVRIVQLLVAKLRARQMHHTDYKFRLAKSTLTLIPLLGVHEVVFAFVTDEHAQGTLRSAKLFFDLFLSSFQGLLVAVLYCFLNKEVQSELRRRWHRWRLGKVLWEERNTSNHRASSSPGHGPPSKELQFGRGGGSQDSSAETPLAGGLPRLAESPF

EC50, GLP-1 Receptor Assay (cAMP); sample C6.5-4 C.-4 wk [1]: 0.37 nM
EC50, GLP-1 Receptor Assay (cAMP); sample C6.5-40 C.-4 wk [1]: 0.31 nM
EC50, GLP-1 Receptor Assay (cAMP); sample C6.5MT-4 C.-4 wk [1]: 0.4 nM
EC50, GLP-1 Receptor Assay (cAMP); sample C6.5MT-40 C.-4 wk [1]: 0.29 nM
EC50, Gcg Receptor Assay (cAMP); sample C6.5-4 C.-4 wk [2]: 51.9 nM
EC50, Gcg Receptor Assay (cAMP); sample C6.5-40 C.-4 wk [2]: > 100 nM
EC50, Gcg Receptor Assay (cAMP); sample C6.5MT-4 C.-4 wk [2]: 54 nM
EC50, Gcg Receptor Assay (cAMP); sample C6.5MT-40 C.-4 wk [2]: > 100 nM
EC50, GIP Receptor Assay (cAMP); sample C6.5-4 C.-4 wk [3]: > 100 nM
EC50, GIP Receptor Assay (cAMP); sample C6.5-40 C.-4 wk [3]: > 100 nM
EC50, GIP Receptor Assay (cAMP); sample C6.5MT-4 C.-4 wk [3]: > 100 nM
EC50, GIP Receptor Assay (cAMP); sample C6.5MT-40 C.-4 wk [3]: > 100 nM
Substance: dulaglutide (Fc fusion)
